As a reminder, the IC50 is the concentration that inhibits the measured activity by half. Low values mean inhibition by little substance, high ones a need for much substance.

We go through one molecule from US20110143428A1 (Genentech, published 2011).

The assay deals with T1, hVEGF-C (human, UniProt P49767).
T1 construct: unlabelled; also called human VEGF-C
T1 sequence (VEGF-C, looked up): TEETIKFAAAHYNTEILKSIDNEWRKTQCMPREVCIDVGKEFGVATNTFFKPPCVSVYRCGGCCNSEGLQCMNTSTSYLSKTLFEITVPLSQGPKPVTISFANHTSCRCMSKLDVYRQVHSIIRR
The experiment in a line: phage competition ELISA: phage-displayed clone incubated with increasing soluble hVEGF-C, unbound phage captured on hVEGF-C coated plate, anti-M13-HRP, OD450. For orientation: ELISA stands for enzyme-linked immunosorbent assay.

B1: VC1.1 (antibody, V domains shown)
VH: EVQLVESGGGLVQPGGSLRLSCAASGFTFSDSDIHWVRQAPGKGLEWVAWISPYSGYTDYADSVKGRFTISADTSKNTAYLQMNSLRAEDTAVYYCARLFKVIFDYWGQGTLVTVSS
VL: DIQMTQSPSSLSASVGDRVTITCRASQDVSTAVAWYQQKPGKAPKLLIYSASFLYSGVPSRFSGSGSGTDFTLTISSLQPEDFATYYCQQSYTTPPTFGQGTKVEIK
notes: also called clone VC1.1
B1: the IC50 worked out at 41.5 nM.
